Experimental data: publication doi:10.1101/2022.08.07.503104, “A tripartite complex HIV-1 Tat-cyclophilin A-capsid protein enables Tat encapsidation that is required for HIV-1 infectivity” (bioRxiv, 2022)

How the values were obtained:
[1] = target: T1, Recombinant human CypA (human, UniProt P62937 1-165, Monolith RED-NHS 2nd generation fluorescent label, in the MST experiments only); test: SPR; Tat immobilised on a CM5S chip by amine coupling (~11000 RU); CypA or equimolecular CypA/CA mix at 370-6000 nM, one cycle kinetic titration, or CA at 2 µM; 25°C, 20 mM phosphate, 30 mM citrate, pH 7, 150 mM NaCl, 0.05% P20; two state fitting model; settings: both partners purified
T1 construct: extra N-terminal gly residue left after TEV cleavage; cyclophilin A (CypA), human; Unlabeled in SEC and SPR, labeled in MST; also called cyclophilin A; labeled CypA; source: E. coli BL21 λDE3, purified (Ni-NTA, TEV cleavage, second Ni-NTA); not shown: His6, N-terminal, cleaved

[2] = target: T1, Recombinant human CypA; test: MST; fluorescently labeled CypA at 50 nM, partner titrated; where indicated CypA first mixed with 20 µM CA or 1 µM Tat; 20°C, 150 mM NaCl, 50 mM citrate, pH 7.3, 0.05% Tween; settings: both partners purified

T1 sequence (P62937 other isoform, or with tags, fused parts or gaps): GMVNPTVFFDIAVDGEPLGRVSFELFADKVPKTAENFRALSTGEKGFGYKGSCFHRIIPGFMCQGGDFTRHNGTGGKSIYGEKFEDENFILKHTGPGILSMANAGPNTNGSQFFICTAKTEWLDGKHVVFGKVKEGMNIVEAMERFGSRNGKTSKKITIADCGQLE

B1: Recombinant Tat (86 residues, BH10 isolate) (natural protein)
chain: MEPVDPRLEPWKHPGSQPKTACTNCYCKKCCFHCQVCFITKALGISYGRKKRRQRRRPPQGSQTHQVSLSKQPTSQSRGDPTGPKE
notes: HIV-1 Tat, BH10 isolate, 86 residues; source: E. coli, purified (as Vendeville et al., 2004); lyophilized
Kd [1]: 255 ± 10 nM | Kd [2]: 243 ± 23 nM
